Measurements: patent US20040208887A1 (MOLECULES OF MAN, published 2004)

Key:
[1] = target: T1, recombinant E1/E2 heterodimer protein (genotype 1a) (hepatitis C virus genotype 1a, UniProt P26664 192-383; P26664 384-746, limits assumed); assay: ELISA, E1/E2 heterodimer coated; crude periplasmic Fab
T1 construct: also called E1/E2 in complex; recombinant E1/E2 antigen

[2] = target: T2, recombinant soluble HCV E1 protein (hepatitis C virus); assay: ELISA, recombinant E1 captured on GNA lectin; crude periplasmic Fab
T2 construct: It is not the cell-surface E1-myc construct (aa 174-359 of H77c) that was used for phage selection; also called recombinant E1; soluble E1 protein

T1 sequence (P26664 192-383 limits assumed, chain 1 of 2): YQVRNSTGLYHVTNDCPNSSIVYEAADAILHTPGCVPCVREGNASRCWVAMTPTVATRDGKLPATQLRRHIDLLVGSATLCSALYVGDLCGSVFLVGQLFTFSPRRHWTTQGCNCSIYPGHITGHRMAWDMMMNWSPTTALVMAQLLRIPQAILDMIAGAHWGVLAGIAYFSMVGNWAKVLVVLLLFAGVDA
T1 sequence (P26664 384-746 limits assumed, chain 2 of 2): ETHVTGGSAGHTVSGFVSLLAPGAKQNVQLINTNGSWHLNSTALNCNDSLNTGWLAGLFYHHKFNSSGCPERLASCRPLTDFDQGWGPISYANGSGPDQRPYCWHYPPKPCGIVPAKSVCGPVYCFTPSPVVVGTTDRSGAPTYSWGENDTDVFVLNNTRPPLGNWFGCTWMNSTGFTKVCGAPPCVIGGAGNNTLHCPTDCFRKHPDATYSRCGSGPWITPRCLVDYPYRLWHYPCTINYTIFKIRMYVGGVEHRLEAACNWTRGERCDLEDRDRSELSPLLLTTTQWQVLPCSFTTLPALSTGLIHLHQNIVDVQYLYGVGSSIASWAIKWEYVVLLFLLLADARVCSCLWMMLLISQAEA

| Binder | OD405 nm [1] [OD405 nm] | OD405 nm [2] [OD405 nm] |
| --- | --- | --- |
| Fab clone 2a-32 (Fab, V domains shown, Human Fab (gamma1 Fd + kappa), crude periplasmic preparation, approx. >1 ug Fab/ml) VH: VQLLEQSGGDLVKPGGSLRLSCAASGFTFTDYYMNWIRQAPGKGLEWIAYISIGSDDTKYAASVKGRFSISRDNAKNSLYLQMNSLRVEDTAVYYCGRGGGYCSGGNCYSSDYWGQGALVTVSS VL: AELTQSPSSLSAFTGDRVSITCRASQGIGNSLAWYQQKPGHVPKVLIYDASTLSSGAPSRFSGSGSGTDFTLTISGLQPEDVATYYCQKYKSAPLTFGGGTKVEIR | 0.09 | 0.61 |
| Fab clone 2a-13 (Fab, V domains shown, Human Fab (gamma1 Fd + kappa), crude periplasmic preparation, approx. 0.36 ug Fab/ml) VH: EVQLLESGPGLVKPSETLSLTCTVSGGSISDYYWSWIRQPPGKGLEWIGHTYDNGGTKYNPSLKSRASISVDTSKNQVSLRLTSVTAADTAVYYCATAFLDNSGWYTFDSWGQGSLVTV VL: AELTQSPSSVSASVRDRVTITCRASQGISTWLAWYQQKPGKAPKLLIYAASTLQSGVPSRFSGSGSGTDFTLTIGSLQPEDVATYYCQQANSFPPGALTFGGGTKVEVK |  | 1.05 |
| Fab clone 2a-30 (Fab, V domains shown, Human Fab (gamma1 Fd + kappa), crude periplasmic preparation, approx. 0.96 ug Fab/ml) VH: VQLLEQSGGGLVQPGGSLRLSCTASGFTLTDYSMDWVRQAPGKGPEWVGRSRNKANIYTTEYAASVKGRFVISRDDSENSVYLQMNNVKMDDTAVYYCARGEGIFYGSGSLDLWGQGAVVTVSS VL: AELTQSPSSLSASVGDRVTITCRSSQSISNSLHWFQQEPGKAPKLLIYAASTLQSGVPSRFSGSGSGTDFTLIITGLQPEDFATYYCQQSPRTPLTFGGGTKVEIR | 0.52 | 1.11 |
| Fab clone 2b-1 (Fab, V domains shown, Human Fab (gamma1 Fd + kappa), crude periplasmic preparation, approx. 0.94 ug Fab/ml) VH: EVQLLESGPRLVKPSQTLSLTCTVSGDSLNNASHYWAWIRQPAGKGLEWIGRIHRGGSTNYNPSLQSRVTISMDESKNQFSLRLNSVTAADTAVYYCARDPPKAWGPGILVTVSS VL: AELTQSPSSLSASVGDRVTIACRASQSISNHLNWYQQKPGKAPKVLIYAASSLQSGVPSRFSGSGSGTDFTLTISSLQPEDFAIYYCQQSYSNADFGPGTKVDIK | 0.12 | 0.35 |
| Fab clone 2a-33 (Fab, V domains shown, Human Fab (gamma1 Fd + kappa), crude periplasmic preparation, approx. >1 ug Fab/ml) VH: VQLLEQSGGGLVQPGRSLRLSCAASGFTFDDYAMHWVRQTPGKGLEWVSGIGWNSGTIEYADSVKGRFTISRDNAKNSLYLQMNSLRPEDTALYYCAKDLHSFGYCSGRSCYFHPFDYWGQGTLVTVSS VL: not shown | 0.14 | 0.65 |
| Fab clone 4:6 (Fab, V domains shown, Tested as a human Fab (gamma1 Fd + kappa), crude periplasmic preparation, approx. 0.24 ug Fab/ml) VH: VQLLEQSGAEVKKPGASVKVSCKASGYTFTKYYLHWVRQAPGQGLEWMGFINPSGGSTSSAQKFQGRISMTRDTSTTTVYMEVNSVTSEDTAVYYCARVGRLGVGATGAFDLWGQGTMVTVSS VL: AELTQSPSSLSASVGDRVTITCQASQDINYSLNWYQQKPGKPPKLLIYYASHSDTGVPSRFSGGGSGTRFTLTIYSLQPEDIATYYCQHFDHVPRYTFGPGTKVDLK | 0.2 | 0.97 |
| Fab clone 2a-14 (Fab, V domains shown, Human Fab (gamma1 Fd + kappa), crude periplasmic preparation, approx. 0.72 ug Fab/ml) VH: VQLLEQSGGGVVQPGRSLRLSCAASGFTFSTYAMHWVRQAPGKGLEWVAVISHDGSNKFYADSVKGRFTISRDSSKNTLYLQMNSLRPGDTAVYYCSRWDRRAEYFQDWGQGTLVTVSS VL: AELTQSPAFMSATPGDKVNISCKASQDIDDDMNWYQQKPGEAAIFIIQEATTLVPGIPPRFSGSGYGTDFTLTINNIESEDAAYYFCLQHDNFPLTFGQGTKVEIK | 0.09 | 0.36 |
| Fab clone 2a-23 (Fab, V domains shown, Human Fab (gamma1 Fd + kappa), crude periplasmic preparation, approx. 0.50 ug Fab/ml) VH: EVQLLESGAGVVQPGKSLTLSCVGSGFTFSIYAMHWVRQAPGKGLEWVAVLSSDGSNDYYADSVKGRFSIFRDTSKNSLNLLMNNVRGEDTAVYYCARDGDGSFFYWGQGTLVTVSS VL: AELTQSPAFMSATPGDKVNISCKASQDIDDDMNWYQQKPGEAAIFIIQEATTLVPGIPPRFSGSGYGTDFTLTINNIESEDAAYYFCLQHDNFPLTFGQGTKVEIK |  | 1.47 |
| Fab clone 2a-40 (Fab, V domains shown, Human Fab (gamma1 Fd + kappa), crude periplasmic preparation, approx. 1.0 ug Fab/ml) VH: VQLLEQSGGGLVKPGGSLRLSCTASGFTFSGFTFSDHYMSWIRQAPGKGLELVSYIISNGYTNYPDSVKGRFTVSRDNARKSLYLQMNSLRVEDTAIYYCARGLSPSIAGDGFDIWGQGTMVTVSS VL: AELTQSPAFMSATPGDKVNISCKASQDIDDDMNWYQQKPGEAAIFIIQEATTLVPGIPPRFSGSGYGTDFTLTINNIESEDAAYYFCLQHDNFPLTFGQGTKVEIK | 0.17 |  |
| Fab clone 2a-37 (Fab, V domains shown, Human Fab (gamma1 Fd + kappa), crude periplasmic preparation, approx. 0.08 ug Fab/ml) VH: EVQLLESGGGLVQPGRSLRLSCAASGFTFSNSDMHWVRQAPGKGLEWVTVSSRDGYDNYYADSVRGRFTISRDNSKNTLYLQMNTLRAEDTAVYYCAKRRGYAFDIWGQGTMVTVSS VL: AELTQSPSSLSASVGDRVTITCRASQSINTYLNWYQQKPGKAPELLIYGASSLQSGVPSRFSGSGSGTDFTLTITSLQAEDFASYFCQQSDSTPRTFGQGTKVEIK | 0.48 | 0.99 |
| Fab clone 2b-17 (Fab, V domains shown, Human Fab (gamma1 Fd + kappa), crude periplasmic preparation, approx. 0.16 ug Fab/ml) VH: EVQLLESGGGLVQPGRSLRLSCAASGFTFSNSDMHWVRQAPGKGLEWVTVSSRDGYDNYYADSVRGRFTISRDNSKNTLYLQMNTLRAEDTAVYYCAKRRGYAFDIWGQGTMVTVSS VL: AELTQSPSSLSASVGDRVTITCRASQSINTYLNWYQQKPGKAPELLIYGASSLQSGVPSRFSGSGSGTDFTLTITSLQAEDFASYFCQQSDSTPRTFGQGTKVEIK |  | 0.24 |
| Fab clone 1:9 (Fab, V domains shown, Human Fab (gamma1 Fd + kappa), crude periplasmic preparation, approx. 0.05 ug Fab/ml) VH: EVQLLESGPGLVKPSETLSLTCTVSGNSISSGYYWVWFRQSPGKGLEWIASIYHSGSTYYNPSLRSRVSISVDTSKKQFSLKLSSVTAADTAVYYCARDSAKTTRYFVHWGQGTLVTVSS VL: AELTQSPGTLSLSPGERATLSCRASQSVSSSYLAWYQQKAGQAPRLLIYGASRRATGIPVRFSGSGSGAEFTLTISSLQSEDSAVYYCQHYHNWPAMYTFGQGTKLEIK | 0.67 | 0.96 |
| Fab clone 13 (Fab, V domains shown, Human Fab (gamma1 Fd + kappa light chain), tested as a crude periplasmic preparation, approx. >3 ug Fab/ml) VH: EVQLLESGGGLVQPGRSLRLSCAASGFTFDDYGMHWVRQAPGKGLEWVSGLSWNSDNIGYADSVKGRFTISRDNAKNSLYLQMNSLKIEDTAFYYCAKAPRTLRFLEWHNVYFDLWGRGTLVTVSS VL: not shown |  | 0.2 |
| Fab clone 2a-25 (Fab, V domains shown, Human Fab (gamma1 Fd + kappa), crude periplasmic preparation, approx. 0.11 ug Fab/ml) VH: VQLLEQSGAEVKKPGASVKVSCKASGYMFTCYYMHWVRQAPGQGLEWMGMVNPTGGSSSYAQKFQGRVTMTKGHVTSTVYMELSSLRSEDTAVYYCATGMVRGDEWGQGTLVTVSS VL: AELTQSPSFSSASVGDRVTITCRASHGISSHLAWFQHKPGKAPNLLIYAASTLQSGVPSRFSGSQSGTEFTLTITSLHPEDFATYYCQQLYTWPMGFGQGTRLEIT |  | 1.46 |
| Fab clone 2a-4 (Fab, V domains shown, Human Fab (gamma1 Fd + kappa), crude periplasmic preparation, approx. 1.0 ug Fab/ml) VH: not shown VL: AELTQSPSSLSASIGDRVAISCQASQDIGNYLNWYQQKPGKAPRLLIYDASNLEAGVPSRFSGSGSGTDFTLTISTLQPEDFATFYCQQTDSTPYTFGQGTKLEIR |  | 1.18 |
| Fab clone 6a:5 (Fab, V domains shown, Tested as a human Fab (gamma1 Fd + kappa), crude periplasmic preparation, approx. 0.33 ug Fab/ml) VH: EVQLLESGPGLVKPSQTLSLTCAISGDNVSRKSAAWNWIRQSPSRGLEWLGRTYHMSKWYSVYATSLKSRININVDTSRNQFALQLRSVTPEDTAVYYCAREGPEWAVGGTYGMDVWGQGTTVTVSS VL: AELTQSPDTLSLSPGERATLSCRASQSVNNNYLAWYQQKPGQAPRLLIYGASSRATGIPDRFSGSGSETDFTLTISRLEPEDFAVYYCQQYDSSRTFGQGTKVEIK | 0.09 | 0.15 |
| Fab clone 2a-5 (Fab, V domains shown, Human Fab (gamma1 Fd + kappa), crude periplasmic preparation, approx. 0.44 ug Fab/ml) VH: EVQLLESGPGLVKPSETLSLTCTVSTGSISGYFWSWIRQPPGKGLEWIAYIHNSGNTNYNPSLRSRVTVSIDTSKNQFSLKLTSVTAADTAVYYCARDGGGWDTYLDSWGQGFLVTVSS VL: AELTQSPSSLSASVGDRVTITCRASQTVSSYLNWYQQKPGKAPKVLIYGISTLQSGVPSRFSGSGSETDFTLTISNLQPEDFAIYYCQQSYSSRTFGQGTKVEIK | 0.08 | 0.89 |
| Fab clone 1:8 (Fab, V domains shown, Human Fab (gamma1 Fd + kappa), crude periplasmic preparation, approx. 0.01 ug Fab/ml) VH: EVQLLESGGGLVEPGRSLRLSCAASGFNFGDYAIHWVRQGPGKGLEWVAGISWNSGSIGYADSVKGRFIISRDNAKKTLFLQMNTLRTEDTALYYCVKETGAQGVAGSGAYYFHNWGQGTLVTVSS VL: AELTQSPSSLSASIGDRVTITCRASQGISNYVAWYQQRPGKVPKLLIFGASALHSGVPSRFSGSGSGTDFTLTITSLQPEDVATYYCQKYRSAPLTFGPGTRVDLK | 0.53 | 0.75 |
| Fab clone 2b-3 (Fab, V domains shown, Human Fab (gamma1 Fd + kappa), crude periplasmic preparation, approx. 1.0 ug Fab/ml) VH: EVQLLESGAEVKKPGASVTVSCKASGYSFSDYYIHWVRQAPGQGLEWMGIINPSAGTTTYKQKFQHRVTLTRDTSTNTAYMKLYNLTPDDTAIFFCARGSGGSRSEYDYWGQGTLVTVSS VL: AELTQSPSSLSASVGDGVTITCRASQSISTYLNWYQQKPGKAPKLLMYAASTLQSGVPSRFSGSGSGTDFTLTISSLQPEDFAAYYCQQARSFPYTFGQGTRLEIR | 0.19 | 1.18 |
| Fab clone 98 (Fab, V domains shown, Human Fab (gamma1 Fd + kappa light chain), tested as a crude periplasmic preparation, approx. 5 ug Fab/ml) VH: EVQLLEQSGAEVKKPGESLRISCRGSGYSFPNYWVSWVRQMPGKGLEWMGKIDPSDSETNYSPSFQGHVTISADKSLSIAYLQWNSLKASDTAMYHCARHKRGAPTYKDILTGYYVDGMDVWGQGTTDTVSS VL: AELTQSPSSLSASVGDRVTITCQASPDISNYLNWYQQKPGKAPNLLIYGASSLQRGVPSRLSGSGSGTDFTLTIDSLQPEDFATYYCQQSYGSPHTFGQGTKVEIK |  | 0.2 |
| Fab clone 2b-9 (Fab, V domains shown, Human Fab (gamma1 Fd + kappa), crude periplasmic preparation, approx. 0.19 ug Fab/ml) VH: LLESGPGLVQPSQTLSLTYAISGDSVSSNSAAWTWIRQSPSRGLEWLGMTYYRSQWYHEYAVSLKSRITINADTSNNQFSLQVNSVTPEDTALYYCARARFVGDTTGYYTFDYWGQGTLVTVSS VL: AELTQSPGTLSLSPGERGTLSCRASQSVSSSYLAWYQQKAGQAPRLLIYGASSRATGIPDRFSGSGSGTDFTLTISRLEPEDFAVYYCQRYGTSPKTFGQGTKVEFK |  | 0.33 |
| Fab clone 1:10 (Fab, V domains shown, Human Fab (gamma1 Fd + kappa), crude periplasmic preparation, approx. 0.01 ug Fab/ml) VH: EVQLLESGAEVKKPGESLRISCRGSGYSFPNYWVSWVRQMPGKGLEWMGKIDPSDSETNYSPSFQGHVTISADKSLSIAYLQWNSLKASDTAMYYCARHKRGAPTYKDILTGYYVDGMDVWGQGTTVTVSS VL: AELTQSPDSLAMSLGERASINCKSSRSLLYSSNNKNYLAWYQQKSGHPPKLLIYWASTRESGVPDRFNGSGSGTDFTLTISSLQAEDVAVYFCQQYYSSPLTFGGGTKVEIK | 0.12 | 0.2 |
